How the values were obtained:
Experiment in all cases: cell_activity
[1] = target: TcI42 (bacteriophage lambda) (UniProt P03034); conditions: GFP derepression fold change 32.4 to 45.7 C, E. coli; SEM 444
[2] = target: TcI38 (bacteriophage lambda) (UniProt P03034); conditions: GFP derepression fold change 32.4 to 40 C, E. coli; SEM 160
[3] = target: TcI (cI857, A67T) (bacteriophage lambda) (UniProt P03034); conditions: GFP derepression fold change 34.2 to 40 C, E. coli; SEM 404; text gives >1432
[4] = test system: TlpA39 (Salmonella enterica); conditions: GFP derepression fold change 31.4 to 44.6 C, E. coli; SEM 434
[5] = test system: TlpA (in cell) (Salmonella enterica); conditions: GFP derepression fold change 31.4 to 44.6 C, E. coli; SEM 45
[6] = test system: TlpA36 (Salmonella enterica); conditions: GFP derepression fold change 31.4 to 44.6 C, E. coli; SEM 63

Substance | activity [1] | activity [2] | activity [3] | activity [4] | activity [5] | activity [6]
lambda tandem pR/pL operator/promoter | 1690 fold | 1030 fold | 1430 fold | – | – | –
pTlpA operator/promoter, 52 bp | – | – | – | 1520 fold | 355 fold | 370 fold

Reference: US20170298425
